The values below come from publication PMC8280819 (The EMBO Journal, 2021).

The target of one data set is His-SigH (Mycobacterium tuberculosis H37Rv, UniProt P9WGH9 1-216). Kind of data set: EMSA. Background: A gel shift assay detects complexes by their altered migration in electrophoresis.
The next data set concerns the target T1, His-AosR (Mycobacterium tuberculosis H37Rv, UniProt P9WM25 1-218).
T1 sequence: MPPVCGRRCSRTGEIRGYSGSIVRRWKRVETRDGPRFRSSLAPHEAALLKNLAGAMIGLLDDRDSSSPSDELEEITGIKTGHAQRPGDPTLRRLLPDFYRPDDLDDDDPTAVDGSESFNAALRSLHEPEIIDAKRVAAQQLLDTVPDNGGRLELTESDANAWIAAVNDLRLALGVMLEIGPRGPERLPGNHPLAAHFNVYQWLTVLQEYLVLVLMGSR
Kind of data set: EMSA.

Chain of His-SigH (P9WGH9 whole entry): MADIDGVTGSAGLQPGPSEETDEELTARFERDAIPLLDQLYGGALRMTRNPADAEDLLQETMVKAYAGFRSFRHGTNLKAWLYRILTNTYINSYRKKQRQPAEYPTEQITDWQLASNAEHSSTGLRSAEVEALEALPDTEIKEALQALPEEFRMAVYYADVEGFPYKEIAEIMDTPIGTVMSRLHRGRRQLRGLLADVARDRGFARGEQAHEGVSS

B1: 100 bp upstream of mec (intragenic auxiliary promoter) (dsDNA)
DNA 1: AGTCGTGCGGTGCTGGCCGGCGTGCTCAATGCTCAGCCGGTAGCCGGAATACCGACCTACCGTGACATGTTTTCCCGGAGCATTCGGGTCTTGAAACTCA
DNA 2: TATGAGTTTCAGGACCCGAATGCTCCCCGGGAAACATGTCACGGTAGGTCGGTATTCCGGCTACCGGCTGAGCATTGAGCACGCCGGCCAGCCACCGCACGACT
As to B1, the binding result with His-SigH and with His-AosR was “binds” each time.
